According to the supplement of paper PMC9170038:

Test system: MS2 coat protein
Assay: apparent KD of MS2 coat protein; designed switch direction (-1 OFF switch, 1 ON switch): -1; higher = weaker reporter binding
How it was run: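 Designed RNA switches were transcribed on Illumina chips by stalled E. coli RNA polymerase and titrated with SNAP-549-labelled MS2 coat protein from 0.7 or 1.5 nM, doubling to 3 µM. Step length ran from 0.8–1.5 h at the lowest concentration to 10–20 min at the highest. The apparent KD is the median over clusters for each design, from curve-fitted normalised cluster fluorescence.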

[1] = Eterna round: R95, input ligand: FMN 200 uM
[2] = Eterna round: R95, input ligand: microRNA oligo, concentration not stated
[3] = Eterna round: R95, input ligand: none
[4] = input ligand: microRNA oligo, concentration not stated

Sequence	apparent KD of MS2 coat protein (input ligand: FMN 200 uM)	apparent KD of MS2 coat protein (input ligand: none)	apparent KD of MS2 coat protein [1]	apparent KD of MS2 coat protein [2]	apparent KD of MS2 coat protein [3]	apparent KD of MS2 coat protein [4]
AAAUACAAAGGAUAUACAUGAGGAUCACCCAUGUAGGUCAAUGCGCGGGCGAUGCCACGUAGAAGGUUGAAUAC [EX3 C.12] (Eterna round: R97, puzzle: Exclusion 3)	27.5 nM	24.1 nM				
AAAUACAAGCAAAGAUCCUACAUGAGGAUCACCCAUGUGUUCGUCUUAUAAAGUACUAUCACGAAAGUGAUAGUACA [Sensor 3, v1 - 18] (puzzle: Sensor v3, turn-off variant 1)			309 nM	1100 nM	198 nM	
AAAUAGCAAGUGUGAUCCUACAUGAGGAUCACCCAUGUGUUCGUCUUAUUUGAAGACAACACAAAAGUGUUGUCUUA [Omei Mir OFFv1 B2] (Eterna round: R97, puzzle: Sensor, turn-off variant 1)	32.9 nM	24.6 nM				
AAAUAUAAGCAAAGAUCCUACAUGAGGAUCACCCAUGUGCUCGUCUUAUAAAGUACUAUCACGAAAGUGAUAGUACA [Sensor 3, v1 - 19] (puzzle: Sensor v3, turn-off variant 1)			117 nM	49 nM	215 nM	
AAAUCCGCUGAGGAUAUCAUGACUGAGAGGUCAUGAGAAGGCGGUACAUGAGGAUCACCCAUGUCUAUGGGCAA [Ex-6 Malc#28] (puzzle: Exclusion 6)				386 nM		
AAAUUAACUUAGGAUAUCGGCUGAAACAGCGUACGAGAAGGAAGUACAUGAGGAUCACCCAUGUGUCCCGUGCU [Teentibi] (Eterna round: R97, puzzle: Exclusion 6)	68.6 nM	38.1 nM				
AAAUUCAGAGGAUAUGCGCAUAGAUAAGACUUUUUUUUUUAACAUGAGGAUCACCCAUGUAGAAGGCUGUAACA [Ex2 #50] (Eterna round: R97, puzzle: Exclusion 2)	25.4 nM	21.2 nM				
AAAUUGUGAGGAUAUUCGUAGUACUCGGAGACGAGUAUUACGGAGAAGGCACAUGAGGAUCACCCAUGUUCCUU [Mat - Exclusion 4 - JL Mod - D20] (Eterna round: R97, puzzle: Exclusion 4)	88.3 nM	16.3 nM				
AACAGGACAGGAUAUACAUGAGGAUCACCCAUGUAGGAAACAAGCAGAGUACCAAAAAGUAGAAGGGUCAUGGA [Ruby 30] (Eterna round: R96, puzzle: Exclusion 3)						53.6 nM
AACAGUACAGGAUAUACAUGAGGAUCACCCAUGUGACAAUUAAGUGGCGUACCACAAAGUAGAAGGGUACUGGA [Ruby 86] (Eterna round: R96, puzzle: Exclusion 3)	206 nM	31 nM				24.3 nM
AACAGUCUGGAGGAUAUGCUGGAUUAAAAUCUGGCAGAAGGCUGGACAUGAGGAUCACCCAUGUAAAUACUACC [Omei Ex6 A2a] (Eterna round: R97, puzzle: Exclusion 6)	73.1 nM	24.8 nM				
AACAUGAGGAUCACCCAUGUAAUGGACAGAUCACCGACCACGCAGGAUAUUAGGCCUCAAAUUCUUAAGAAGGGCGAGGAUGUG [Eternabot solution 49] (Eterna round: R96, puzzle: Exclusion NG 3)	50.3 nM	66.9 nM				52 nM
AACCGUCGUCAGGAUAUUUGCCAGGAUUCUAGCGAAGAAGGGACGACAUGAGGAUCACCCAUGUUGGCCACUCG [EX6 B.26] (Eterna round: R97, puzzle: Exclusion 6)	188 nM	36.9 nM				
AACCUACAUGAGGAUCACCCAUGUGAGGAUAUAUUGGUAUUUAUAUUAUUUUUUAGAGGUAGAAGGCGCGUGAU [JR_Exc1_Sub021] (Eterna round: R97, puzzle: Exclusion 1)	14.2 nM	14.2 nM				
AACCUGAGGCAUAGCUUUAGGUUUACAUGAGGAUCACCCAUGUAGGAUAUGGUAGGCAUAGCUUACCAGAAGGACAUGAAAAUU [Mat - Exclusion NG 3 - Mod of JL - D30] (Eterna round: R96, puzzle: Exclusion NG 3)	417 nM	55.6 nM				47.9 nM
AACCUGAGGCUUUGCUUUAGGUGUACAUGAGGAUCACCCAUGUAGGAUAUGGUAGGCAAAGCUUACCAGAAGGACAUUUAGGUU [Mat - Exclusion NG 3 - Mod of JL - D43] (Eterna round: R96, puzzle: Exclusion NG 3)	72.8 nM	41.4 nM				34.3 nM
AACCUGAGGCUUUGCUUUAGGUGUACAUGAGGAUCACCCAUGUAGGAUAUGGUAGGCUUUGCUUACCAGAAGGACAUUGGCGUU [JL ENG3 1.14] (Eterna round: R96, puzzle: Exclusion NG 3)	388 nM	97.3 nM				66.2 nM

Sequence	apparent KD of MS2 coat protein (input ligand: FMN 200 uM)	apparent KD of MS2 coat protein (input ligand: none)	apparent KD of MS2 coat protein [1]	apparent KD of MS2 coat protein [2]	apparent KD of MS2 coat protein [3]	apparent KD of MS2 coat protein [4]
AACGAUACGCUCAUAAGAACAUGAGGAUCACCCAUGUGUGGUGAGGAUAUCCACCCAGAGGGAAAGGAGAAGGUACCAGUGGAC [Orsoenbere] (Eterna round: R96, puzzle: Exclusion NG 3)	222 nM	303 nM				143 nM
AAGAAACAUGAGGAUCACCCAUGUGAGGAUAUGAAAAAGAAAAGAAAAGAAAGAAGAUUCAGAAGGCACAAAGG [salish99-ex1_r3_021] (puzzle: Exclusion 1)			60.7 nM	31.9 nM	33.9 nM	
AAGAAACAUGAGGAUCACCCAUGUGAGGAUAUGAACCGCCCGGCGUAAGCAAAAUAAAUCAGAAGGCACAAAGG [salish99_ex1_r4_006] (Eterna round: R97, puzzle: Exclusion 1)	38.3 nM	32.2 nM				
AAGAAACAUGAGGAUCACCCAUGUGAGGAUAUGACAAAGAAAAGAAAAGAAAGAAGAAUCAGAAGGCACAAAGG [salish99-ex1_r3_033] (puzzle: Exclusion 1)			121 nM	83.1 nM	96.6 nM	
AAGAAACAUGAGGAUCACCCAUGUGAGGAUAUGAGGAAGAAAAGAAAAGAAAGAAGAUUCAGAAGGCACAAAGG [salish99-ex1_r3_058] (puzzle: Exclusion 1)			96.3 nM	35.1 nM	59.1 nM	
AAGAAACAUGAGGAUCACCCAUGUGAGGAUAUGUAAAAUAAAAGAAAAGAAAGAAGAAACAGAAGGCACAAAGG [Mat - Mod of Hog D13] (puzzle: Exclusion 1)			47.3 nM	35.4 nM	47.5 nM	
AAGAAGUGAGGAUAUGGCCGGGUCCCUGGGUUUGGACCCGGCCAGAAGGCACAUGAGGAUCACCCAUGUAAGAA [Excls4-X] (puzzle: Exclusion 4)				21.1 nM		
AAGAAUUUAUAGGAUAUCGAAAGUAUAAUUUAACGAGAAGGAUGAACAUGAGGAUCACCCAUGUGGUAUCAUGG [JL-ex6-3.09] (puzzle: Exclusion 6)			145 nM	232 nM	304 nM	
AAGAAUUUGCAGGAUAUCUACCACGAUAGGGAUAGAGAAGGGUAAACAUGAGGAUCACCCAUGUAGUAGGUCCG [Eternabot (L2) Solution 91] (Eterna round: R97, puzzle: Exclusion 6)	61.3 nM	115 nM				
AAGACUCGCAAUAAGAACAAGCACUCCGAACUAUAAGUAACAUGAGGAUCACCCAUGUCAAGGGUGCCAAAGUCAAA [JR_Sensorv2_tov2_Sub302] (Eterna round: R96, puzzle: Sensor v2, turn-off variant 2)	15.4 nM	18.6 nM				16 nM
AAGAGUGCAGGAUAUACUUGGUAGGGCGGGUGGAUGAAGUGACAUGAGGAUCACCCAUGUAGAAGGGCAGAGAG [JR_Exclu2_Sub055] (puzzle: Exclusion 2)			24.6 nM	21.4 nM	25.7 nM	
AAGAUGCGGGUAGGAUAUGGAGAGAAAGAAAGACCAGAAGGAUUGGUCACACAACAUGAGGAUCACCCAUGUGUGUGUUGCGAA [EX ng 1 6.1] (Eterna round: R96, puzzle: Exclusion NG 1)						9.22 nM
AAGCAACAUGAGGAUCACCCAUGUGAGGAUAUACGCAUGCAUGCAUGCAUGCAUGCAAGUAGAAGGCACAAUAC [Design #16] (Eterna round: R97, puzzle: Exclusion 1)	69.8 nM	35.3 nM				
AAGGACCGUGUAGGAUAUGCACUGAAUAGGUCAGGAGGGUUCUUACACAUGAGGAUCACCCAUGUGUAGAAGGACGGAAGGUCA [Eternabot solution 25] (Eterna round: R96, puzzle: Exclusion NG 2)	12.7 nM	15.2 nM				11.4 nM
AAGGCGGUAGGAUAUACAUGAGGAUCACCCAUGUGUCGCAUAAUCACAGCAGUACUCUGUAGAAGGACCGUCAG [Eternabot (L2) Solution 100] (Eterna round: R97, puzzle: Exclusion 3)	457 nM	114 nM				
AAGUACCGGUGAGGAUAUUUAUAAUAGAGCUUUAUGAUAUACAUGAGGAUCACCCAUGUUACUUUAAAGAAGGCAUCGGAUUAA [Mat - Exclusion NG 2 - Mod of JL - D92] (Eterna round: R96, puzzle: Exclusion NG 2)	19.2 nM	18.1 nM				11.1 nM
AAGUACCGUCACGAUAGUGAUGGUACAACUAGCAUGUAAACAUGAGGAUCACCCAUGUCCUCAAUUGCUCGUCUUAU [Sensor 3 - 69] (puzzle: Sensor v3, turn-off variant 2)			740 nM	829 nM	814 nM	
